Experimental data reported in publication PMC12992115 (Nature Cell Biology, 2026).
“And” between values parts separate entries of the source, which are not always exact repeats. Equal values may be shown once.

Assays:
[1] = biological target: truncated kinesin-1 rigor mutant (KIF5B(1–490)) with SpyTag003 at the C terminus (UniProt P33176); assay: mass photometry
[2] = biological target: BicD2(25–400) with SpyCatcher003 at the C terminus (mouse) (UniProt Q921C5); assay: mass photometry
[3] = biological target: BicD2–superfolder green fluorescent protein (sfGFP), amino acids 25–400 (UniProt Q921C5); assay: pull-down + other: mass photometry
[4] = biological target: BicD2–rigor kinesin conjugate (BicD2(25–400)–SpyCatcher003 covalently linked to KIF5B(1–490) rigor mutant–SpyTag003) (mouse | not stated) (UniProt Q921C5); assay: three-colour single-molecule TIRF co-localization
[5] = biological target: Biotinylated BicD2 (amino acids 25–400) (mouse) (UniProt Q921C5); assay: three-colour single-molecule TIRF co-localization
mass photometry = biological target: the molecule itself; assay: mass photometry

Sequence of BicD2–superfolder green fluorescent protein (sfGFP), amino acids 25–400 (Q921C5 25-400): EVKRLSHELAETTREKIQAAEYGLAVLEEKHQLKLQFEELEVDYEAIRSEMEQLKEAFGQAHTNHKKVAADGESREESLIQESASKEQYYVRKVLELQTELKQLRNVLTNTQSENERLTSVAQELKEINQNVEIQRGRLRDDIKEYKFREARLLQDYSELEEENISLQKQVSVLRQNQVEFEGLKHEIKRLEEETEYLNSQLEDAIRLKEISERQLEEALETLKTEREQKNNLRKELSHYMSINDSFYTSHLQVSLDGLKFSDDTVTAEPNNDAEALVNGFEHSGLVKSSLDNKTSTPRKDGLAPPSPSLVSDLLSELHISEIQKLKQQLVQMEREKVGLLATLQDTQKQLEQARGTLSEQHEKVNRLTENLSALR
Sequence of Biotinylated BicD2 (amino acids 25–400) (mouse) (Q921C5 25-400): as above
Sequence of BicD2–rigor kinesin conjugate (BicD2(25–400)–SpyCatcher003 covalently linked to KIF5B(1–490) rigor mutant–SpyTag003) (mouse | not stated) (Q921C5 25-400, change not shown): as the sequence (Q921C5 25-400) above

Work on “BicD2(25–400) with SpyCatcher003 at the C terminus (from UniProt Q921C5 25-400) (domain or fragment)” yielded a stoichiometry N (BicD2:rigor kinesin (2:2)) [1] of 1 and a stoichiometry N [2] of 2.

For “cytoplasmic dynein from rat-brain lysate (complex)”, the stoichiometry N (dynein per DDB complex) [3] was 1 and 2.

Molecule “recombinant full-length human cytoplasmic dynein-1 complex co-expressed with its five accessory chains (from UniProt Q14204;Q13409;O43237;P63172;P63167;Q9NP97)” has a frequency of three-colour dynein co-localization [4] of 0.028 and a frequency of three-colour dynein co-localization [5] of 0.018.

B1: truncated kinesin-1 rigor mutant (KIF5B(1–490)) with SpyTag003 at the C terminus (domain or fragment)
chain: MADLAESNIKVMCRFRPLNESEVNRGDKYIAKFQGEDTVVIACKPYAFDRVFQSSTSQEQVYNDAAKKIVKDVLEGYNGTIFAYGQTSSGKNHTMEGKLHDPEGMGIIPRIVQDIFNYIYSMDENLEFHIKVSYFEIYLDKIRDLLDVSKTNLSVHEDKNRVPYVKGATERFVSSPDEVMDTIDEGKSNRHVAVTNMNEHSSRSHSIFLINVKQENTQTEQKLSGKLYLVDLAGSEKVSKTGAEGAVLDEAKNINKSLSALGNVISALAEGSTYVPYRDSKMTRILQDSLGGNARTTIVICCSPSSYNESETKSTLLFGQRAKTIKNTVSVNVELTAEQWKKKYEKEKEKNKILRNTIQWLENELNRWRNGETVPIDEQFDKEKANLEAFTVDKDITLTNDKPATAIGVIGNFTDAERRKAEEEIAKLYKQLDDKDEEINQQSQLVEKLKTQMLDQEELLASTRRDQDNMQAELNRLQAENDASKEEVKE
modifications: cyanine 5 label (Fig. 5d) or CF488 label (Fig. 5h)
For B1, the “stoichiometry N” value (mass photometry) was 2.
